Laboratory results as given in patent US20050238649A1.

Molecular target: human HER2 (ErbB2) receptor (human) (UniProt P04626)
Assay: cell-based or functional assay

| Substance | IC50, cell proliferation assay (CellTiter-Glo), BT474 cells [µg ADC/ml] | IC50, cell proliferation assay (CellTiter-Glo), SK-BR-3 cells [µg ADC/ml] | maximum inhibition of cell proliferation of SK-BR-3 cells [%] |
| --- | --- | --- | --- |
| 4D5 Fab-MC-vc-PAB-MMAF, 1.5 MMAF/Ab | 0.04 | 0.02 | – |
| murine monoclonal antibody 4D5 | – | – | 66 |
